Experimental data as given in US20180030151A1 (MOGAM INSTITUTE FOR BIOMEDICAL RESEARCH, published 2018).
Like-named read-outs stand apart in the source and are kept apart here.

Assays:
[1] = target: T1, recombinant human TFPI (tissue factor pathway inhibitor) (human, UniProt P10646 29-304); test: cell-based or functional assay
[2] = target: T1, recombinant human TFPI (tissue factor …); test: SPR, Biacore T-200; TFPI immobilised on CM5 chip, IgG as analyte
Method: 10 mM of glycine-HCl (pH 1.5) was run at a flow rate of 30 μL/min for 30 seconds, thereby inducing the dissociation of the antibody associated with the TFPI. The affinity in terms of kinetic rate constants (Kₒₙ and Koff) and equilibrium dissociation constant

[3] = target: T1, recombinant human TFPI (tissue factor …); test: cell-based or functional assay; remark: listed apart in the source
[4] = target: T1, recombinant human TFPI (tissue factor …); test: cell-based or functional assay; remark: listed apart in the source
[5] = target: T1, recombinant human TFPI (tissue factor …); test: cell-based or functional assay; remark: listed apart in the source
[6] = target: T1, recombinant human TFPI (tissue factor …); test: cell-based or functional assay; remark: listed apart in the source
[7] = target: T1, recombinant human TFPI (tissue factor …); test: cell-based or functional assay; remark: listed apart in the source

B1: clone T417 (antibody, V domains shown)
VH: EVHLVESGGDLVKPGGSLKLSCAASGFTFSSYAMSWVRQTPDKRLEWVATITTGGSYTYYPDSVKGRFTISRDNAKNTLYLQMSSLKSEDTAMYYCARQDGNFLMDYWGQGTTVTVSS
VL: not shown
notes: also called T417 chimeric antibody
- FXa assay % of FXa alone, 2.5 nM Ab, 10 nM TFPI [1]: 9.8%
- FXa assay % of FXa alone, 5 nM Ab, 10 nM TFPI [1]: 52.1%
- FXa assay % of FXa alone, 10 nM Ab, 10 nM TFPI [1]: 69.4%
- FXa assay % of FXa alone, 20 nM Ab, 10 nM TFPI [1]: 81.8%
- FXa assay OD, 2.5 nM Ab, 10 nM TFPI [1]: 0.079
- FXa assay OD, 5 nM Ab, 10 nM TFPI [1]: 0.42
- FXa assay OD, 10 nM Ab, 10 nM TFPI [1]: 0.56
- FXa assay OD, 20 nM Ab, 10 nM TFPI [1]: 0.66
- Kd [2]: 6.7 pM
- FXa assay % of FXa alone, 2.5 nM Ab, 10 nM TFPI [3]: 5.5%
- FXa assay % of FXa alone, 5 nM Ab, 10 nM TFPI [3]: 7.1%
- FXa assay % of FXa alone, 10 nM Ab, 10 nM TFPI [3]: 28.8%
- FXa assay % of FXa alone, 20 nM Ab, 10 nM TFPI [3]: 54.5%
- FXa assay OD, 2.5 nM Ab, 10 nM TFPI [3]: 0.048
- FXa assay OD, 5 nM Ab, 10 nM TFPI [3]: 0.062
- FXa assay OD, 10 nM Ab, 10 nM TFPI [3]: 0.251
- FXa assay OD, 20 nM Ab, 10 nM TFPI [3]: 0.474
- FXa assay % of FXa alone, 0.625 nM Ab, 10 nM TFPI [4]: 6%
- FXa assay % of FXa alone, 2.5 nM Ab, 10 nM TFPI [4]: 10%
- FXa assay OD, 0.625 nM Ab, 10 nM TFPI [4]: 0.061 OD
- FXa assay OD, 2.5 nM Ab, 10 nM TFPI [4]: 0.098 OD
- FXa assay OD, 10 nM Ab, 10 nM TFPI [4]: 0.753 OD
- FXa assay OD, 40 nM Ab, 10 nM TFPI [4]: 0.887 OD
- FXa assay % of FXa alone, 2.5 nM Ab, 10 nM TFPI [5]: 9.2%
- FXa assay % of FXa alone, 5 nM Ab, 10 nM TFPI [5]: 43.8%
- FXa assay % of FXa alone, 10 nM Ab, 10 nM TFPI [5]: 75.2%
- FXa assay % of FXa alone, 20 nM Ab, 10 nM TFPI [5]: 88.6%
- FXa assay OD, 2.5 nM Ab, 10 nM TFPI [5]: 0.071
- FXa assay OD, 5 nM Ab, 10 nM TFPI [5]: 0.337
- FXa assay OD, 10 nM Ab, 10 nM TFPI [5]: 0.579
- FXa assay OD, 20 nM Ab, 10 nM TFPI [5]: 0.682
- % of Normalized, TF/FVIIa/FX complex assay, Ab 1.56 nM [6]: 17.5%
- % of Normalized, TF/FVIIa/FX complex assay, Ab 3.13 nM [6]: 17.2%
- % of Normalized, TF/FVIIa/FX complex assay, Ab 6.25 nM [6]: 20%
- % of Normalized, TF/FVIIa/FX complex assay, Ab 12.5 nM [6]: 27.7%
- % of Normalized, TF/FVIIa/FX complex assay, Ab 25 nM [6]: 97.7%
- % of Normalized, TF/FVIIa/FX complex assay, Ab 50 nM [6]: 102%
- % of Normalized, TF/FVIIa/FX complex assay, Ab 100 nM [6]: 102%
- A405, TF/FVIIa/FX complex assay, Ab 1.56 nM [7]: 0.045
- A405, TF/FVIIa/FX complex assay, Ab 3.13 nM [7]: 0.047
- A405, TF/FVIIa/FX complex assay, Ab 6.25 nM [7]: 0.05
- A405, TF/FVIIa/FX complex assay, Ab 12.5 nM [7]: 0.074
- A405, TF/FVIIa/FX complex assay, Ab 25 nM [7]: 0.273
- A405, TF/FVIIa/FX complex assay, Ab 50 nM [7]: 0.6
- A405, TF/FVIIa/FX complex assay, Ab 100 nM [7]: 0.81
